# Test results taken from the DeepSol protein solubility set.
# Assay: soluble on expression in E. coli; label from the status in PepcDB or PDB records
row,Sequence,soluble on expression in E. coli
1,MEKLIILGAQWGDEGKGKIVDLLSEHFDITVRYQGGSNAGHTVVVNSQKFILHLLPTGILHEHVKGVIAQGMVVDLEVLHKEVKNLEEKGIYVKERLFISDRAHLVMPYHKLLDSLFEKKKGIGTTLRGIGPAYMFKYGRKGIRISDLKDEKRFYTLLEDNLDFVKNICEKVFCEKFDLDINQIYEEQLRYFEEFKENVVDLLRFFNTQKGSVLFEGAQGTLLDVDMGTYPYVTSSNASALGLSNGTGMPPKYFSDAFFLGVAKAYTTRVGEGPFPTELKGEEGEKLRELGGEYGSTTGRPRRCGWLDLVALKYAVQVNGLDGFVITKLDVLDTFDEVKVCVAYELDGEVIDYFPASYSELIRVKPVYKTLKGWKKSTKGAKDVSELPKEALDYVKFIEEYTGVPVVMLSTGPKRDEYIWLKEILRTRSGYS,soluble
2,MEKPTRLALLKEIAEFLNEETEIYSMMQGALRLLINGSDFSTGWIFYIDEEGHHDLVSSVDLPEALSKNHCYYLTNGSCWCVQAYQNHKLTKASNIINCSRINLANHAYDKETNHITHHATVPLQSGSERFGLLNVASPNKEHYSEEDLELLESVAFQIGSAIKRIQLTNKEKENAKINERNRLARDLHDSVNQMLFSLKLTAHAAKGITTDEQAQRAFKTIEETSQNAVNEMRALIWQLKPVGLEQGLIHALHYYSKMLGLDLKVTINGLIDLSNDIEENVYRIIQEAMNNVIKHAKTNKVYLDLSQNVDYLEVDIRDNGQGFDTQSINTFLFNGLKNIKQRTQYLNGKVTIESKINQGTRIYIKIPLKLKEHPYA,not soluble
3,MEKPVMCKIIDVLDESPTVKTFLLDKEFDFKPGQFAMVWIPEIDEKPFGFSSKNSISIAKVGRFTEKIHSLKKGDLLGIRGPYGNNFEYMGSKILAVAGGIGSAPIISAVEKFSKMDVEVTSIIGGRTKDELLFLDRFEKCGRTFACTDDCSYGFGGFTTEKMLELLSKEKFDMIISCGPEIMMKKVVEIAEKHAIPIQVSLERYMKCGIGICGHCAVDDEGLCICKDGPVFWNDKLKFVSEFGKYKRDASGAIL,not soluble
4,MEKQLKAMSVSDKPAAPAAQKLGTAPLAAKKTRNEEWGTKVNIDTNIRKLTIKPNQPIYKYAVQVNYVFRKPDGTEATIEMSKSAKKGTEHDNDKTRCQNVYNEAIKRYDELKTGGPFFYDRQASLYTLTKLKNESISFVVTDKICKRQNFKEAQFVLKKVDQSFQSTSNDVIKTTNSCPANADKTLLEAMNIIVSGPAFENKNVITVGACVHYLIDPTGVDVAYKEYPEGQLYSGVGVSKSVKTLEGTDKKVPSLFMTTEMKTTLFHPDYAPLVELLQTFRGFSTTLKANSPAAQRIEKAFVGLDVVLNYGVHKGLGEDGVVMKIRRFHTSAKETCFEVEKSTREFTNVFDYFKKKYGITLKYPDLFTIEAKGKQGKIHFPAEVLLLCPNQTVTNDQMINNEQADMIKMSAAQPHIRKTTTDTIVRNVGLASNNIYGFIKVEDPVNLEGMVLPKPKIAFAGNRLADLANPKSRFPTDFNRAGQYYDAKELTKWELVFVQNEEVQGLAKQLADEMVNNGMKCSNPTMSFIIRGDLEPIFKKAKAAGTQLLFFVVKSRYNYHQQIKALEQKYDVLTQEIRAETAEKVFRQPQTRLNIINKTNMKLGGLNYAIGSEAFNKPNRLIVGFVTSQRVGGNPDYPISVGFAANMLKHHQKFAGGYVYVHRDRDVFGSIIKDTLLTIFKTCTEQRGRPDDILLYFNGVSEGQFSMINEEFSARVKEACMAFQKEGTPPFRPHITIIASSKAHNERLYKSDKGRIVNLEPGTVVDHTIVSNVYTEWYHASAVARQGTAKATKFTLIFTTKAGPQAEPLWHLEQLTNDLCYDHQIVFHPVGLPVPLYIADRYSQRGAMVLAANQGPIYNEGQIDLAATNSAYGYGEKKLFTTRFNA,not soluble
5,MEKQNLPVVVVGAGPVGLAAAAHLVERGIEPLVLEAGASAATAVRDWAHVRLFSPWAEVTDPAAEKLLAPTGWLRPDGATYPTGGDWAERYLQPLADVLGDQVRYGATVTGVARAGRDRIVDSGREEQPFTVHIETADGGEERIAARAVIDAGRRGVRHADRLEHHHHHH,soluble
6,MEKRNEEHSRKKFIEEQLNALKHEERVLNETRTKLQQQKWHLLQENDKIKEKIRVRDAAAGAGTGTGAPPE,not soluble
7,MEKSVNVIGAGLAGSEAAWQLVKRGVKVDLYEMRPVKQTPAHHTDKFAELVCTNSLRANGLTNAVGVIKEEMRLLDSIIIESADKASVPAGGALAVDRHEFSGYITDKVKNHPLVTIHTEEVTSIPEGPTIIATGPLTSPALAEEIKRLTGEEYLYFYDAAAPIIEKDSIDMDKVYLKSRYDKGEAAYLNCPMSEEEFNTFYEALVTAETAALKEFEKEVFFEGCMPIEVMAKRGIKTMLFGPLKPVGLEDPKTGKRPYAVLQLRQDDAAGTLYNMVGFQTHLKWGEQKRVFGLIPGLENAEIVRYGVMHRNTFINSPTVLEPTYQLKTRNDLFFAGQMTGVEGYVESAASGLAAGINAANFVQDKEPIVFPPESAIGSLANYITSASKKSFQPMNVNFGLFPELPTKIRAKQERNEKLAERALDAIKKVAEQLLEHHHHHH,soluble
8,MEKTITIYTDGAASGNPGKGGWGALLMYGSSRKEISGYDPATTNNRMELMAAIKGLEALKEPARVQLYSDSAYLVNAMNEGWLKRWVKNGWKTAAKKPVENIDLWQEILKLTTLHRVTFHKVKGHSDNPYNSRADELARLAIKENS,soluble
9,MELADVGAAASSQGVHDQVLPTPNASSRVIVHVDLDCFYAQVEMISNPELKDKPLGVQQKYLVVTCNYEARKLGVKKLMNVRDAKEKCPQLVLVNGEDLTRYREMSYKVTELLEEFSPVVERLGFDENFVDLTEMVEKRLQQLQSDELSAVTVSGHVYNNQSINLLDVLHIRLLVGSQIAAEMREAMYNQLGLTGCAGVASNKLLAKLVSGVFKPNQQTVLLPESCQHLIHSLNHIKEIPGIGYKTAKCLEALGINSVRDLQTFSPKILEKELGISVAQRIQKLSFGEDNSPVILSGPPQSFSEEDSFKKCSSEVEAKNKIEELLASLLNRVCQDGRKPHTVRLIIRRYSSEKHYGRESRQCPIPSHVIQKLGTGNYDVMTPMVDILMKLFRNMVNVKMPFHLTLLSVCFCNLKALNTAK,soluble
10,MELKHSISDYTEAEFLEFVKKIARAEGATECDDNKLVREFERLTEHPDGSDLIYYPRDDREDSPEGIVKEIKEWRAANGKSGFKQG,soluble
11,MELPVVDLSSYLDFSGDELGSDLLESCRQVSRILKETGALIVKDPRCCAQDNDRFIDMMENYFEKPDDFKRLQQRPNLHYQVGATPEGVEVPRSLVDEEMQEKFNTMPNEYKPHIPKGPDHKWRYMWRVGPRPSNTRFKELNSEPVVPEGFPGWEEVMDSWGYKMISAVEVVAEMAAIGFGLPKDAFTSLMKQGPHLLAPTGSDLNCYNEEGTIFAGYHYDLNFLTIHGRSRFPGLYIWLRNGEKVAVKVPVGCLLIQAGKQIEWLTAGECIAGMHEVVVTSKTKDAITLAKEQNRSLWRVSSTLFAHIASDAELKPLGHFAESSLASKYPAIPAGEYVEQELSVINLKGNKGSS,soluble
12,MELRVGNKYRLGRKIGSGSFGDIYLGANIASGEEVAIKLECVKTKHPQLHIESKFYKMMQGGVGIPSIKWCGAEGDYNVMVMELLGPSLEDLFNFCSRKFSLKTVLLLADQMISRIEYIHSKNFIHRDVKPDNFLMGLGKKGNLVYIIDFGLAKKYRDARTHQHIPYRENKNLTGTARYASINTHLGIEQSRRDDLESLGYVLMYFNLGSLPWQGLKAATKRQKYERISEKKMSTPIEVLCKGYPSEFSTYLNFCRSLRFDDKPDYSYLRQLFRNLFHRQGFSYDYVFDWNMLKFGAARNPEDVDRERREHEREERMGQLRGSATRALPPGPPTGATANRLRSAAEPVASTPASRIQPAGNTSPRAISRVDRERKVSMRLHRGAPANVSSSDLTGRQEVSRIPASQTSVPFDHLGK,not soluble
13,MELSSLTAVSPVDGRYGDKVSALRGIFSEYGLLKFRVQVEVRWLQKLAAHAAIKEVPAFAADAIGYLDAIVANFSEEDAARIKTIERTTNHDVKAVEYFLKEKVAEIPELHAVSEFIHFACTSEDINNLSHALMLKTARDEVILPYWRQLIDGIKDLAVQYRDIPLLSRTHGQPATPSTIGKEMANVAYRMERQHRQLNQVEILGKINGAVGNYNAHIAAYPEVDWHQFSEEFVTSLGIQWNPYTTQIEPHDYIAELFDCVARFNTILIDFDRDVWGYIALNHFKQKTIAGEIGSSTMPHKVNPIDFENSEGNLGLSNAVLQHLASKLPVSRWQRDLTDSTVLRNLGVGIGYALIAYQSTLKGVSKLEVNRDHLLDELDHNWEVLAEPIQTVMRRYGIEKPYEKLKELTRGKRVDAEGMKQFIDGLALPEEEKARLKAMTPANYIGRAITMVDELK,not soluble
14,MELVKTIQIGDDIYPPIPDLFGIQENQEFNLYKSTDGTLVLSPSDSKLSADHQSISSDEQMTTAVEQARLDEIATSVLSRHLDAFKELTE,not soluble
15,MEMYFKRMKDEWTGLVEQADPPIRAKAAEIAVAHAHYLSIEFYRIVRIDPHAEEFLSNEQVERQLKSAMERWIINVLSAQVDDVERLIQIQHTVAEVHARIGIPVEIVEMGFRVLKKILYPVIFSSDYSAAEKLQVYHFSINSIDIAMEVMTRAFTFSDSLEHHHHHH,not soluble
16,MEMYFKRMKDEWTGLVEQADPPIRAKAAEIAVAHAHYLSIEFYRIVRIDPHAEEFLSNEQVERQLKSAMERWIINVLSAQVDDVERLIQIQHTVAEVHARIGIPVEIVEMGFRVLKKILYPVIFSSDYSAAEKLQVYHFSINSIDIAMEVMTRAFTFSDSSASKELEHHHHHH,soluble
17,MENNPFQRTEKIDISWCPGCGNFAIKASLSNALSKLNLKPQNVAIISGIGQAGKMPHYMFVNGFHTLHGRAIPAATAVKATNPELTVIAEGGDGDMYAEGGNHLIHAIRRNPNITVLIHNNQIYGLTKGQASPTTLVSTKTPTQPWGVFEEPLNPIALAISLNASFVARTFSGNLEKTEEIIIKAINHKGLSIVDIFHPCPSFNKVNTLQWYNENTYFLEDHDVTDRKKAFEKALQTEKYPLGIFYTCEKPVFEEVVPPYISEKTPIWKREPDLEKIEEIINSKRT,not soluble
18,MENREPPLLPARWSSAYVSYWSPMLPDDQLTSGYCWFDYERDICRIDGLFNPWSERDTGYRLWMSEVGNAASGRTWKQKVAYGRERTALGEQLCERPLDDETGPFAELFLPRDVLRRLGARHIGRRVVLGREADGWRYQRPGKGPSTLYLDAASGTPLRMVTGDEASRASLRDFPNVSEAEIPDAVFAAKRLEHHHHHH,soluble
19,MENTEKLKNSKEVIAYIAECFPNCFTLEGEAKPLKIGIFQDLADRLNDDPKVSKTQLRAALRQYTSSWRYLHGVKPGATRVDLDGNPCGELEEQHVEHAQAALAESKARVEARRKEQVKKVREEAKANKPKAKKPQQARRPQNAPKVEKKPVETRALAASELNVGNQVNVNMGKGNMAATIVEVNKEDVRVQLANGLQMVVKAEHLRA,not soluble
20,MENVNRNHKNSVFSSLFSTPDVLRELYSAIEGIPIPPDIPIDINTLTDILYKGQINDVSFVINNRLVVLIEHQSTINANIPLRLLMYIARVYEKIINRKKLYQSKLEKIPLPEFIVLYNGEKEYSDFQELKLSDAFKDIDGLKLSGIEKIPLELIVQVYNINHGHNPEILKRSETLDSYSIFINKIREYQKEKDSLEKAARSAIIYCIKNNILKDYLEAHASEVLNMLLTEWNQDEAVEVAREEGREEGREEGHENGLKEGKMIIAKNLLEKGSTPEFVREITGLSPEEIEEIELND,soluble
21,MEPKLSKDTIIAAAFSLLEKSPTLEQLSMRKVAKQLGVQAPAIYWYFKNKQALLQSMAEAIEEHFQEPALCGEWYSDLLAFMENYYDLYQQFPCAVAIEIQTVPAYPQRLRHLNQMMGILREAGFSPEMTHLAVTSLQHLLFGMIMDATEEKQLVSQVLNGDDYLKEQVLHMKQYVSDNELTYMEESIQFRHSIHQKSAFIQAVKTYLDGLQADNTSSSK,soluble
